In patent US20200368282A1:

Target: human TNFR2 (tumor necrosis factor receptor 2) (human) (UniProt P20333)
Test: surface plasmon resonance (Pioneer SensiQ)

Sequence of UniProt P20333 (P20333 23-257 S98P/S102P limits assumed): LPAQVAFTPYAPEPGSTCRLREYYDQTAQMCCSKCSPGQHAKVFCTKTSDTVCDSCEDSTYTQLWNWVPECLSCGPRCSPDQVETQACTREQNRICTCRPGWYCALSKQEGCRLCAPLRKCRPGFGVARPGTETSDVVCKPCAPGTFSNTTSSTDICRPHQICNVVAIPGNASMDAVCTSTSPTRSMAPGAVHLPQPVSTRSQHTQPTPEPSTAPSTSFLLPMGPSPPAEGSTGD

**Q.** “Clone MAB726 (R&D Systems, Inc.) (antibody)” was tested. Which Kd did it give?
**A.** 0.621 nM
